Reference: patent US11306137B2, “Antibody binding agents that bind Acinetobactor and uses thereof” (priority 2015, dated 2022)
Entries after “also recorded” stand apart in the source; their conditions may differ.

Key:
A. baumannii HUMC1 [1] = assay: Lung and blood bacterial burden and lung histopathology in aspiration pneumonia; conditions: 24 hr post-infection
A. baumannii HUMC1 [2] = assay: Blood bacterial density, plasma cytokines and sepsis biomarkers after i.v. infection
[3] = test system: A. baumannii HUMC1 uptake by RAW 264.7 macrophages; assay: Opsonophagocytosis assay (macrophage uptake); type: cell-based; conditions: FIG. 6B
Experimental: RAW 264.7 macrophages (1×10^6 per well) were grown on coverslips in 12-well plates and stimulated with 100 U/mL IFN-γ. Cells adhered to the cover glass overnight in a humidified incubator at 37° C. supplemented with 5% CO2. Cells were washed three times with HBSS and bacteria were added to wells at a ratio of 10:1, bacteria to macrophages, in the presence (or absence) of 10% fetal bovine serum (FBS), either heat-inactivated or complement-active. Plates were briefly centrifuged at 250×g to cohere the bacterial cells to the bottom of the plate and incubated at 37° for 2 hr. Macrophages were washed three times with PBS, fixed with 100% methanol, and Hema 3-stained according to the manufacturer's protocol (Fisher Scientific). To quantitate bacteria counts per macrophage, coverslips were imaged on a Zeiss Axiolmager microscope. Macrophages harboring visible adherent or internalized bacteria were counted and divided by total macrophages to determine the percentage of cells with associated bacteria. The number of bacteria associated with each macrophage was also quantitated and recorded. A minimum of 100 cells per coverslip were counted.

[4] = 22 hr post-infection, relative to controls

B1: C8: mouse IgG1-kappa monoclonal antibody from hybridoma 9.1C8 (ATCC PTA-122177); light chain SEQ ID NO:2, heavy chain SEQ ID NO:3 (antibody, listed as Mus musculus, V domains shown)
VH: EVQLQQSGPELVKPGASVKISCKASGYSFTGYTMNWVKQSHGKSLEWIGRINPYNGDSFYNQKFKGKATLTVDKSSNIAHMEFLSLTSEDSAVYYCGRSGDGPWFAYWGQGTLVTVSA
VL: LPLSLPVSLGDQASISCRSSQSIVHNNGNTYLEWYLQKPGQSPKLLIYKVSNRFSGVPDRFSGSGSGTDFTLKISRVEAEDLGVYYCFQGSHVPLTFGAGTKLEIKGSRS
For B1, which “reduction of bacterial burden in the blood vs control mice” value (A. baumannii HUMC1 [1]; 50 μg C8, FIG. 9C) is on record?
The value was 7 log.

What about the “reduction of bacterial burden in the lungs vs control mice” value (A. baumannii HUMC1 [1]; 50 μg C8, FIG. 9C) of the same molecule?
The value was 2 log.

And the “lung histology (H&E)” value (A. baumannii HUMC1 [1]; FIG. 9D-E)?
The value was “appeared normal; also recorded: maintained normal lung architecture”.

And the “plasma IL-6” value (A. baumannii HUMC1 [2]; 2 hr after infection, FIG. 8B)?
Its value is “significantly reduced”.

And the “plasma TNF” value (A. baumannii HUMC1 [2]; 2 hr after infection, FIG. 8B)?
The value was “significantly reduced”.

And the anion gap (A. baumannii HUMC1 [2]; [4])?
The anion gap was “normal”.

What about the base deficit (A. baumannii HUMC1 [2]; [4]) of the same molecule?
The base deficit was “normal”.

And the blood glucose (A. baumannii HUMC1 [2]; [4])?
The blood glucose was “normal”.

What about the “blood pH” value (A. baumannii HUMC1 [2]; [4]) of the same molecule?
Its value is “normal”.

And the serum bicarbonate (A. baumannii HUMC1 [2]; [4])?
The serum bicarbonate was “normal”.

And the “plasma IL-1β” value (A. baumannii HUMC1 [2]; 22 hr post-infection, FIG. 8B)?
The value was “virtually undetectable”.

And the “plasma IL-10” value (A. baumannii HUMC1 [2]; 22 hr post-infection, FIG. 8B)?
Its value is “virtually undetectable”.

And the “blood urea nitrogen (BUN) levels” value (A. baumannii HUMC1 [2]; 22 hr post-infection, FIG. 8C)?
The value was “baseline”.

And the “physiology (biomarkers of sepsis)” value (A. baumannii HUMC1 [2]; between 2 and 24 hours, FIG. 8C)?
The value was “maintained baseline physiology”.

And the “bacterial density in the blood over time” value (A. baumannii HUMC1 [2]; over the next 20 h, 5 μg i.v., FIG. 8A)?
Its value is “continued to decrease”.

And the “lower bacterial density in the blood than isotype control” value (A. baumannii HUMC1 [2]; two hours after treatment, 5 μg i.v., FIG. 8A)?
The value was 1,000 fold.

And the “macrophage uptake of A. baumannii” value ([3]; C8 5 μg/mL, heat-inactivated or complement-active serum)?
Its value is “markedly increased; also recorded: markedly improved macrophage uptake”.

What about the “macrophage uptake of A. baumannii with active complement” value ([3]; C8 MAb plus normal serum with active complement) of the same molecule?
The value was “highest uptake; also recorded: enhancement was greatest with complement”.
